Data on 36 molecules can be found in PMC10786891, “Massively parallel profiling of RNA-targeting CRISPR-Cas13d”.

The labels stand for the following.
B1: target 2 MT 5'PFS UUU 3'PFS CGC (mixed)
RNA 1: CACCCGUGCAAAAUUGCAGGGGUCUAAAACCUUCUCCAAAUUGUUUCAUCCU
RNA 2: GGGAAUGGAUCCACAUCUACGAAUUCUUUAGGAUGAAACAAUUUGGAGAAGCGCAGAUCGGAAGAGCACACGU
B2: target 2 MT 5'PFS GAA 3'PFS UCG (mixed)
RNA 1: B1 RNA 1
RNA 2: B1 RNA 2 with U27G, U28A, U29A, C52U, G53C, C54G
B3: target 2 MT 5'PFS CAU 3'PFS CGA (mixed)
RNA 1: B1 RNA 1
RNA 2: B1 RNA 2 with U27C, U28A, C54A
B4: target 2 MT 5'PFS UGU 3'PFS UCU (mixed)
RNA 1: B1 RNA 1
RNA 2: B1 RNA 2 with U28G, C52U, G53C, C54U
B5: target 2 MT 5'PFS UUU 3'PFS CGA (mixed)
RNA 1: B1 RNA 1
RNA 2: B1 RNA 2 with C54A
B6: target 2 MT 5'PFS UCU 3'PFS AAG (mixed)
RNA 1: B1 RNA 1
RNA 2: B1 RNA 2 with U28C, C52A, G53A, C54G
B7: target 2 MT 5'PFS GUA 3'PFS CGG (mixed)
RNA 1: B1 RNA 1
RNA 2: B1 RNA 2 with U27G, U29A, C54G
B8: target 2 MT 5'PFS UUA 3'PFS GCA (mixed)
RNA 1: B1 RNA 1
RNA 2: B1 RNA 2 with U29A, C52G, G53C, C54A
B9: target 2 MT 5'PFS UUA 3'PFS GCC (mixed)
RNA 1: B1 RNA 1
RNA 2: B1 RNA 2 with U29A, C52G, G53C
B10: target 2 MT 5'PFS AUU 3'PFS CAC (mixed)
RNA 1: B1 RNA 1
RNA 2: B1 RNA 2 with U27A, G53A
B11: target 2 MT 5'PFS AAC 3'PFS UUA (mixed)
RNA 1: B1 RNA 1
RNA 2: B1 RNA 2 with U27A, U28A, U29C, C52U, G53U, C54A
B12: target 2 MT 5'PFS GGC 3'PFS UCG (mixed)
RNA 1: B1 RNA 1
RNA 2: B1 RNA 2 with U27G, U28G, U29C, C52U, G53C, C54G
B13: target 2 MT 5'PFS UCA 3'PFS UUC (mixed)
RNA 1: B1 RNA 1
RNA 2: B1 RNA 2 with U28C, U29A, C52U, G53U
B14: target 2 MT 5'PFS UCA 3'PFS UUA (mixed)
RNA 1: B1 RNA 1
RNA 2: B1 RNA 2 with U28C, U29A, C52U, G53U, C54A
B15: target 2 MT 5'PFS UUG 3'PFS UGC (mixed)
RNA 1: B1 RNA 1
RNA 2: B1 RNA 2 with U29G, C52U
B16: target 2 MT 5'PFS GUG 3'PFS UUU (mixed)
RNA 1: B1 RNA 1
RNA 2: B1 RNA 2 with U27G, U29G, C52U, G53U, C54U
B17: target 2 MT 5'PFS GGC 3'PFS UCA (mixed)
RNA 1: B1 RNA 1
RNA 2: B1 RNA 2 with U27G, U28G, U29C, C52U, G53C, C54A
B18: target 2 MT 5'PFS GAG 3'PFS UUU (mixed)
RNA 1: B1 RNA 1
RNA 2: B1 RNA 2 with U27G, U28A, U29G, C52U, G53U, C54U
B19: target 2 MT 5'PFS CGG 3'PFS CGC (mixed)
RNA 1: B1 RNA 1
RNA 2: B1 RNA 2 with U27C, U28G, U29G
B20: target 2 MT 5'PFS UAG 3'PFS ACA (mixed)
RNA 1: B1 RNA 1
RNA 2: B1 RNA 2 with U28A, U29G, C52A, G53C, C54A
B21: target 2 MT 5'PFS UAG 3'PFS ACC (mixed)
RNA 1: B1 RNA 1
RNA 2: B1 RNA 2 with U28A, U29G, C52A, G53C
B22: target 2 MT 5'PFS GGC 3'PFS UCU (mixed)
RNA 1: B1 RNA 1
RNA 2: B1 RNA 2 with U27G, U28G, U29C, C52U, G53C, C54U
B23: target 2 MT 5'PFS AAU 3'PFS UCG (mixed)
RNA 1: B1 RNA 1
RNA 2: B1 RNA 2 with U27A, U28A, C52U, G53C, C54G
B24: target 2 MT 5'PFS GGC 3'PFS UCC (mixed)
RNA 1: B1 RNA 1
RNA 2: B1 RNA 2 with U27G, U28G, U29C, C52U, G53C
B25: target 2 MT 5'PFS UAG 3'PFS ACU (mixed)
RNA 1: B1 RNA 1
RNA 2: B1 RNA 2 with U28A, U29G, C52A, G53C, C54U
B26: target 2 MT 5'PFS CGG 3'PFS CGA (mixed)
RNA 1: B1 RNA 1
RNA 2: B1 RNA 2 with U27C, U28G, U29G, C54A
B27: target 2 MT 5'PFS CUU 3'PFS CUU (mixed)
RNA 1: B1 RNA 1
RNA 2: B1 RNA 2 with U27C, G53U, C54U
B28: target 2 MT 5'PFS GGU 3'PFS UAC (mixed)
RNA 1: B1 RNA 1
RNA 2: B1 RNA 2 with U27G, U28G, C52U, G53A
B29: target 2 MT 5'PFS GCG 3'PFS CGG (mixed)
RNA 1: B1 RNA 1
RNA 2: B1 RNA 2 with U27G, U28C, U29G, C54G
B30: target 2 MT 5'PFS GAA 3'PFS UCC (mixed)
RNA 1: B1 RNA 1
RNA 2: B1 RNA 2 with U27G, U28A, U29A, C52U, G53C
B31: target 2 MT 5'PFS UGU 3'PFS UCG (mixed)
RNA 1: B1 RNA 1
RNA 2: B1 RNA 2 with U28G, C52U, G53C, C54G
B32: target 2 MT 5'PFS CAU 3'PFS CGG (mixed)
RNA 1: B1 RNA 1
RNA 2: B1 RNA 2 with U27C, U28A, C54G
B33: target 2 MT 5'PFS UAG 3'PFS ACG (mixed)
RNA 1: B1 RNA 1
RNA 2: B1 RNA 2 with U28A, U29G, C52A, G53C, C54G
B34: target 1 insA 3' of 8,insG 3' of 6 (mixed)
RNA 1: CACCCGUGCAAAAAUGCAGGGGUCUAAAACUGAGCGGAUAACCUCUCUAUGG
RNA 2: GGGAAUGGAUCCACAUCUACGAAUUCGUACCAUAGAGAGGUUAUACCGGCUCACCGAGAUCGGAAGAGCACACGU
B35: target 1 G15A,C22A (mixed)
RNA 1: B34 RNA 1
RNA 2: GGGAAUGGAUCCACAUCUACGAAUUCGUAACAUAGAAAGGUUAUCCGCUCACCGAGAUCGGAAGAGCACACGU
B36: target 1 insC 3' of 9,insA 3' of 3 (mixed)
RNA 1: B34 RNA 1
RNA 2: B34 RNA 2 with U44C, A45U, G49C, C50U, U51A

Residue numbers refer to the chain shown, from its start. Names may count otherwise.

The data set has as its target T1, EsCas13d, nuclease-dead (Eubacterium siraeum, UniProt B0MS50, R295A;H300A;R849A;H854A).
T1 sequence: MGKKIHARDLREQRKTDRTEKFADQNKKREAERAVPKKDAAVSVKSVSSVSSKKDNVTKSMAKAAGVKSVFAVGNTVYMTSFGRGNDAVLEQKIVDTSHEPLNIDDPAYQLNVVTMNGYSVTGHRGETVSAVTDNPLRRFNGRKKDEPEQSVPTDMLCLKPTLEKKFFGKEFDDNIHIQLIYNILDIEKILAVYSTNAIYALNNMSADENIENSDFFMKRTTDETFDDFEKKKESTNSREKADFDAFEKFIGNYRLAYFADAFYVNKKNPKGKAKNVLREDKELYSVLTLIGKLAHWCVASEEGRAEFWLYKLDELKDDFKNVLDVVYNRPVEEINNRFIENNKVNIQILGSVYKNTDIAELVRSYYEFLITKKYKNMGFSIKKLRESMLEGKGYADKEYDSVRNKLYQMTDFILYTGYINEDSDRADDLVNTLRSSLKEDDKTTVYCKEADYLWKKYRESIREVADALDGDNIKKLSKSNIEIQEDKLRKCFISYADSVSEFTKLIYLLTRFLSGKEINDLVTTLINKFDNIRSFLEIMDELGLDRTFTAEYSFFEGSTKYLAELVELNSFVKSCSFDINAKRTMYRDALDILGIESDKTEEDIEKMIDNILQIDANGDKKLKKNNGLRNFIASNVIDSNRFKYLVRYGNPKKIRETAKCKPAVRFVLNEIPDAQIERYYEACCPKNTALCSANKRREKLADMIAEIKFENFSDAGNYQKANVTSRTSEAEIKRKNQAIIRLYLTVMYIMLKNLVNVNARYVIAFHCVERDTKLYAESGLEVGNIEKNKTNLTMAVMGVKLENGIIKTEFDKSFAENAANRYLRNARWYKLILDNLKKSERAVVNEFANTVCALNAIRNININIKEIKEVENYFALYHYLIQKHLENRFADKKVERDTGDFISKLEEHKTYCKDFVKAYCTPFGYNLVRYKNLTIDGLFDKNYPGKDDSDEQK
Description: crRNA (strand 1, pre-loaded); Mg2+; 40 mM Tris-HCl pH 7.5, 150 mM NaCl, 6 mM MgCl2, 1 mM DTT, 0.1% Tween-20, 0.2 mg/ml BSA; 25 C; 10 min per concentration, then washed. The following applies: tags: His6-TwinStrep-SUMO cleaved; N-terminal SNAP kept (SNAP-Surface 488); label: 3' end held by stalled T7 RNA polymerase.
As usually defined, the Kd is the concentration at which binding is half-saturated. Read a low Kd as higher affinity. B1 returned a Kd of 0.0064 ± 0.0005 µM. B2 gave a Kd of 0.0131 ± 0.0016 µM. To B3 belongs 0.0038 ± 0.0007 µM; to B4, 0.0177 ± 0.0022 µM; to B5, 0.008 ± 0.0009 µM.

The molecule B6 registered a Kd of 0.02 ± 0.006 µM. With B7, the Kd was 0.0069 ± 0.0004 µM.

In turn, B8 yielded a Kd of 0.0147 ± 0.0021 µM. Take B9: the Kd was 0.037 ± 0.012 µM.

For B10, the Kd stood at 0.0072 ± 0.0007 µM.

Molecule B11 gave a Kd of 0.0074 ± 0.0017 µM.

For B12, binding was characterised by a dissociation constant (Kd) of 0.0198 ± 0.0031 µM.

On to B13, for which the Kd turned out to be 0.0103 ± 0.0023 µM. The same measure for B14: 0.0072 ± 0.0011 µM; for B15: 0.0141 ± 0.0022 µM; for B16: 0.061 ± 0.013 µM. B17 registered a Kd of 0.0206 ± 0.0031 µM.

Regarding B18, the affinity, expressed as Kd, was 0.018 ± 0.0022 µM. The same measure for B19: 0.00381 ± 0.00028 µM. B20 displayed a dissociation constant Kd of 0.003 ± 0.0005 µM. The same measure for B21: 0.0073 ± 0.0021 µM; for B22: 0.0189 ± 0.0017 µM; for B23: 0.0064 ± 0.001 µM. The molecule B24 yielded a Kd of 0.036 ± 0.009 µM. To B25 belongs 0.0045 ± 0.0005 µM. The same measure for B26: 0.003 ± 0.0003 µM. With B27, binding was put at a Kd of 0.0047 ± 0.0005 µM. B28 had a Kd of 0.0159 ± 0.0018 µM. To B29 belongs 0.0119 ± 0.0012 µM; to B30, 0.032 ± 0.006 µM; to B31, 0.0158 ± 0.0025 µM. With B32, binding was characterised by a dissociation constant (Kd) of 0.00283 ± 0.00035 µM.

Molecule B33 came in with a Kd of 0.00312 ± 0.00029 µM.

B34: the Kd is 0.0175 ± 0.0009 µM. For B35, binding was characterised by a dissociation constant (Kd) of 0.0206 ± 0.0027 µM. To B36 belongs 0.0111 ± 0.0006 µM.
